From publication doi:10.1101/2023.11.26.568766 (bioRxiv, 2023) come the findings set out here.

This data set concerns the molecule itself. As to the kind of experiment: crystal structure.

B1: XccOpgD (D379N), OpgD from Xanthomonas campestris pv. campestris (enzyme)
chain: AKAVGLRRLGQPQPFDYAWLKGQARALAKAPYKSHKQVLPGPLESLNWDQYQSIRYRQDHALWADGNGKFQAKFFHLGLYFHTPVHIYDIVDGKAQQLAYDPAAFDYGRSGLGGKQLPKDLGFAGFRLNTRKDTDRDFSAFLGASYFRAVGKEGQYGQSARGLAIDTGTGGPEEFPDFIAYYLEQPADDSDTVVVYGLLDSPSVSGAYRFAITNGEVLVMDIDSALYPRKAIERLGIGPCTSMYQTGENDRRMDWDWRPEIHDTDGLAMWTGGGEWIWRPLCNPPHLRFNMFVDENPRGFGLLQRDRNFDHYQDDGVFYEKRPCLWVEPKSGWGKGSVQLVEIPTVDETFNNIVAFWNPQAKPQPGQELLMGYRLYWGAHPPASSPLAHCVATRTGLGGIVGQKRSHFSWRFAVDFAGGELAALAKDPKAKVEAVLQVSRGTTEIVSARPLHELKGYRAMFDLVPPDEGTQQIDIRLFLRANGKPLTETWLYQWTPPPASERKIY
B1: the binding result is on record as “binds”.
